The values below are quoted from earlier work in publication PMC9558124.

The series addresses PEX19 (Homo sapiens) (UniProt P40855).
Chain of UniProt P40855 (P40855 2-296): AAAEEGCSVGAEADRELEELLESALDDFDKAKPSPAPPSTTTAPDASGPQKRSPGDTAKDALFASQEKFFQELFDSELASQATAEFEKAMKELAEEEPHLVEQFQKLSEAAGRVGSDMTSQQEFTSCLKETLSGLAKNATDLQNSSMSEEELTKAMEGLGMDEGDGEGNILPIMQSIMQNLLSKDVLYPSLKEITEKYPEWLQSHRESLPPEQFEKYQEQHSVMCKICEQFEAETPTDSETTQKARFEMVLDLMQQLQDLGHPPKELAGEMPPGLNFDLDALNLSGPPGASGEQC

With PEX3 CTD (from UniProt P56589), the Kd was 10 nM.
